From paper PMC314469, “Protein Interaction Networks by Proteome Peptide Scanning” (PLoS Biology, 2004)
Blank lines part the entries; values can stand above or below the binder they belong to.

Experiments:
Assay in all cases: SPOT array
[1] = biological target: T1, Boi2 SH3 (BOI2_YEAST), P39969
T1 chain: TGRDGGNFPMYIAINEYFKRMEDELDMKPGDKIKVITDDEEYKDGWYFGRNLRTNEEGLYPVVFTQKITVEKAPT

[2] = biological target: T2, Yfr024 SH3 (LSB3_YEAST), P43603
T2 chain: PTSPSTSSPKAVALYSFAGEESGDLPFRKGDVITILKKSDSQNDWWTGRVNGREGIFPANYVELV

[3] = biological target: T3, Rvs167 SH3 (RV167_YEAST), P39743
T3 chain: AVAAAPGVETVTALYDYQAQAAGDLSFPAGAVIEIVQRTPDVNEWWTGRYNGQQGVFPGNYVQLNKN

[4] = biological target: T4, Boi1 SH3 (BOI1_YEAST), P38041
T4 chain: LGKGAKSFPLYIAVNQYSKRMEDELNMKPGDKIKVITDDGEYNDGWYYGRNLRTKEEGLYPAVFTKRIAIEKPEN

[5] = biological target: T5, Yhr016c SH3 (YSC84_YEAST), P32793
T5 chain: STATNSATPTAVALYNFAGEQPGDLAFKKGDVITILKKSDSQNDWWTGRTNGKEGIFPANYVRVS

normalised SPOT signal, Boehringer light units (BLU); mean over the file's lines of this peptide [1]: 343 | normalised SPOT signal, Boehringer light units (BLU); mean over the file's lines of this peptide [2]: 2490 | normalised SPOT signal, Boehringer light units (BLU); mean over the file's lines of this peptide [3]: 425 | normalised SPOT signal, Boehringer light units (BLU); mean over the file's lines of this peptide [4]: 112 | normalised SPOT signal, Boehringer light units (BLU); mean over the file's lines of this peptide [5]: 404
B1: YLR115W 535-548 (peptide)
chain: KMFPFNPAKIKKDD

normalised SPOT signal, Boehringer light units (BLU); mean over the file's lines of this peptide [1]: 219 | normalised SPOT signal, Boehringer light units (BLU); mean over the file's lines of this peptide [2]: 30600 | normalised SPOT signal, Boehringer light units (BLU); mean over the file's lines of this peptide [3]: 11100 | normalised SPOT signal, Boehringer light units (BLU); mean over the file's lines of this peptide [4]: 20000 | normalised SPOT signal, Boehringer light units (BLU); mean over the file's lines of this peptide [5]: 21700
B2: YIR018W 29-42 (peptide)
chain: KLPPRLPHRAAQRR

normalised SPOT signal, Boehringer light units (BLU); mean over the file's lines of this peptide [1]: 46.7 | normalised SPOT signal, Boehringer light units (BLU); mean over the file's lines of this peptide [2]: 7040 | normalised SPOT signal, Boehringer light units (BLU); mean over the file's lines of this peptide [3]: 2650 | normalised SPOT signal, Boehringer light units (BLU); mean over the file's lines of this peptide [4]: 110 | normalised SPOT signal, Boehringer light units (BLU); mean over the file's lines of this peptide [5]: 1790
B3: YPR097W 347-360 (peptide)
chain: KKSPRLPHRNKKVT

normalised SPOT signal, Boehringer light units (BLU); mean over the file's lines of this peptide [1]: 64.9 | normalised SPOT signal, Boehringer light units (BLU); mean over the file's lines of this peptide [2]: 995 | normalised SPOT signal, Boehringer light units (BLU); mean over the file's lines of this peptide [3]: 83.7 | normalised SPOT signal, Boehringer light units (BLU); mean over the file's lines of this peptide [4]: 142 | normalised SPOT signal, Boehringer light units (BLU); mean over the file's lines of this peptide [5]: 792
B4: YPR144C 138-151 (peptide)
chain: KGAPFFPNKTFRKL

normalised SPOT signal, Boehringer light units (BLU); mean over the file's lines of this peptide [1]: 34.1 | normalised SPOT signal, Boehringer light units (BLU); mean over the file's lines of this peptide [2]: 3700 | normalised SPOT signal, Boehringer light units (BLU); mean over the file's lines of this peptide [3]: 45.3 | normalised SPOT signal, Boehringer light units (BLU); mean over the file's lines of this peptide [4]: 9.1 | normalised SPOT signal, Boehringer light units (BLU); mean over the file's lines of this peptide [5]: 0
B5: YPL242C 77-90 (peptide)
chain: KLKPSLPNKLVGKY

normalised SPOT signal, Boehringer light units (BLU); mean over the file's lines of this peptide [1]: 22 | normalised SPOT signal, Boehringer light units (BLU); mean over the file's lines of this peptide [2]: 1300 | normalised SPOT signal, Boehringer light units (BLU); mean over the file's lines of this peptide [3]: 33.3 | normalised SPOT signal, Boehringer light units (BLU); mean over the file's lines of this peptide [4]: 56.8 | normalised SPOT signal, Boehringer light units (BLU); mean over the file's lines of this peptide [5]: 112
B6: YPR104C 439-452 (peptide)
chain: KKPPKIPKKVYTLE

normalised SPOT signal, Boehringer light units (BLU); mean over the file's lines of this peptide [1]: 38.2 | normalised SPOT signal, Boehringer light units (BLU); mean over the file's lines of this peptide [2]: 45.7 | normalised SPOT signal, Boehringer light units (BLU); mean over the file's lines of this peptide [3]: 53.2 | normalised SPOT signal, Boehringer light units (BLU); mean over the file's lines of this peptide [4]: 96.1 | normalised SPOT signal, Boehringer light units (BLU); mean over the file's lines of this peptide [5]: 114
B7: YHR147C 187-200 (peptide)
chain: KFHPPEPYKGKGIY

normalised SPOT signal, Boehringer light units (BLU); mean over the file's lines of this peptide [1]: 49.2 | normalised SPOT signal, Boehringer light units (BLU); mean over the file's lines of this peptide [2]: 332 | normalised SPOT signal, Boehringer light units (BLU); mean over the file's lines of this peptide [3]: 12.2 | normalised SPOT signal, Boehringer light units (BLU); mean over the file's lines of this peptide [4]: 103 | normalised SPOT signal, Boehringer light units (BLU); mean over the file's lines of this peptide [5]: 109
B8: YGR140W 421-434 (peptide)
chain: KKDPFPPPKDLLVQ

normalised SPOT signal, Boehringer light units (BLU); mean over the file's lines of this peptide [1]: 180 | normalised SPOT signal, Boehringer light units (BLU); mean over the file's lines of this peptide [2]: 3000 | normalised SPOT signal, Boehringer light units (BLU); mean over the file's lines of this peptide [3]: 178 | normalised SPOT signal, Boehringer light units (BLU); mean over the file's lines of this peptide [4]: 32 | normalised SPOT signal, Boehringer light units (BLU); mean over the file's lines of this peptide [5]: 682
B9: YAL024C 312-325 (peptide)
chain: KIMPPTPAKKVEFI

normalised SPOT signal, Boehringer light units (BLU); mean over the file's lines of this peptide [1]: 1.3 | normalised SPOT signal, Boehringer light units (BLU); mean over the file's lines of this peptide [2]: 178 | normalised SPOT signal, Boehringer light units (BLU); mean over the file's lines of this peptide [3]: 79.2 | normalised SPOT signal, Boehringer light units (BLU); mean over the file's lines of this peptide [4]: 160 | normalised SPOT signal, Boehringer light units (BLU); mean over the file's lines of this peptide [5]: 92.4
B10: YAR002W 350-363 (peptide)
chain: KISPSAPSKDSFTK

normalised SPOT signal, Boehringer light units (BLU); mean over the file's lines of this peptide [1]: 54.4 | normalised SPOT signal, Boehringer light units (BLU); mean over the file's lines of this peptide [2]: 98.6 | normalised SPOT signal, Boehringer light units (BLU); mean over the file's lines of this peptide [3]: 67.9 | normalised SPOT signal, Boehringer light units (BLU); mean over the file's lines of this peptide [4]: 309 | normalised SPOT signal, Boehringer light units (BLU); mean over the file's lines of this peptide [5]: 61.3
B11: YDL027C 313-326 (peptide)
chain: KNLPLNPSKKLEGK

normalised SPOT signal, Boehringer light units (BLU); mean over the file's lines of this peptide [1]: 68.1 | normalised SPOT signal, Boehringer light units (BLU); mean over the file's lines of this peptide [2]: 149 | normalised SPOT signal, Boehringer light units (BLU); mean over the file's lines of this peptide [3]: 9.5 | normalised SPOT signal, Boehringer light units (BLU); mean over the file's lines of this peptide [4]: 181 | normalised SPOT signal, Boehringer light units (BLU); mean over the file's lines of this peptide [5]: 408
B12: YDR485C 336-349 (peptide)
chain: KKYPRKPKKNLNLG

normalised SPOT signal, Boehringer light units (BLU); mean over the file's lines of this peptide [1]: 27.4 | normalised SPOT signal, Boehringer light units (BLU); mean over the file's lines of this peptide [2]: 907 | normalised SPOT signal, Boehringer light units (BLU); mean over the file's lines of this peptide [3]: 21.7 | normalised SPOT signal, Boehringer light units (BLU); mean over the file's lines of this peptide [4]: 92 | normalised SPOT signal, Boehringer light units (BLU); mean over the file's lines of this peptide [5]: 65.2
B13: YPR095C 158-171 (peptide)
chain: KHAPFIPVKPALEK

normalised SPOT signal, Boehringer light units (BLU); mean over the file's lines of this peptide [1]: 16.9 | normalised SPOT signal, Boehringer light units (BLU); mean over the file's lines of this peptide [2]: 196 | normalised SPOT signal, Boehringer light units (BLU); mean over the file's lines of this peptide [3]: 66 | normalised SPOT signal, Boehringer light units (BLU); mean over the file's lines of this peptide [4]: 17.6 | normalised SPOT signal, Boehringer light units (BLU); mean over the file's lines of this peptide [5]: 105
B14: YOR219C 616-629 (peptide)
chain: KLGPDTPIKVAGPL

normalised SPOT signal, Boehringer light units (BLU); mean over the file's lines of this peptide [1]: 55.9 | normalised SPOT signal, Boehringer light units (BLU); mean over the file's lines of this peptide [2]: 1220 | normalised SPOT signal, Boehringer light units (BLU); mean over the file's lines of this peptide [3]: 51.7 | normalised SPOT signal, Boehringer light units (BLU); mean over the file's lines of this peptide [4]: 30.9 | normalised SPOT signal, Boehringer light units (BLU); mean over the file's lines of this peptide [5]: 417
B15: YGR019W 339-352 (peptide)
chain: KFIPNKPYRQFNTW

normalised SPOT signal, Boehringer light units (BLU); mean over the file's lines of this peptide [1]: 71.2 | normalised SPOT signal, Boehringer light units (BLU); mean over the file's lines of this peptide [2]: 13400 | normalised SPOT signal, Boehringer light units (BLU); mean over the file's lines of this peptide [3]: 280 | normalised SPOT signal, Boehringer light units (BLU); mean over the file's lines of this peptide [4]: 181 | normalised SPOT signal, Boehringer light units (BLU); mean over the file's lines of this peptide [5]: 2960
B16: YJR092W 851-864 (peptide)
chain: KMTPSTPVRSISPI

normalised SPOT signal, Boehringer light units (BLU); mean over the file's lines of this peptide [1]: 46.3 | normalised SPOT signal, Boehringer light units (BLU); mean over the file's lines of this peptide [2]: 241 | normalised SPOT signal, Boehringer light units (BLU); mean over the file's lines of this peptide [3]: 151 | normalised SPOT signal, Boehringer light units (BLU); mean over the file's lines of this peptide [4]: 190 | normalised SPOT signal, Boehringer light units (BLU); mean over the file's lines of this peptide [5]: 288
B17: YBR089C-A 21-34 (peptide)
chain: KKDPNAPKRRLSAY

normalised SPOT signal, Boehringer light units (BLU); mean over the file's lines of this peptide [1]: 90.6 | normalised SPOT signal, Boehringer light units (BLU); mean over the file's lines of this peptide [2]: 11.4 | normalised SPOT signal, Boehringer light units (BLU); mean over the file's lines of this peptide [3]: 15.8 | normalised SPOT signal, Boehringer light units (BLU); mean over the file's lines of this peptide [4]: 76 | normalised SPOT signal, Boehringer light units (BLU); mean over the file's lines of this peptide [5]: 94.6
B18: YFL054C 238-251 (peptide)
chain: KLEPENPQKPSNTH

normalised SPOT signal, Boehringer light units (BLU); mean over the file's lines of this peptide [1]: 19.5 | normalised SPOT signal, Boehringer light units (BLU); mean over the file's lines of this peptide [2]: 286 | normalised SPOT signal, Boehringer light units (BLU); mean over the file's lines of this peptide [3]: 25.3 | normalised SPOT signal, Boehringer light units (BLU); mean over the file's lines of this peptide [4]: 57 | normalised SPOT signal, Boehringer light units (BLU); mean over the file's lines of this peptide [5]: 162
B19: YPR052C 15-28 (peptide)
chain: KKDPNAPKRALSAY

normalised SPOT signal, Boehringer light units (BLU); mean over the file's lines of this peptide [1]: 15.3 | normalised SPOT signal, Boehringer light units (BLU); mean over the file's lines of this peptide [2]: 10700 | normalised SPOT signal, Boehringer light units (BLU); mean over the file's lines of this peptide [3]: 86.7 | normalised SPOT signal, Boehringer light units (BLU); mean over the file's lines of this peptide [4]: 239 | normalised SPOT signal, Boehringer light units (BLU); mean over the file's lines of this peptide [5]: 95.4
B20: YFR030W 641-654 (peptide)
chain: KLRPDLPVKNFVVK

normalised SPOT signal, Boehringer light units (BLU); mean over the file's lines of this peptide [1]: 25.8 | normalised SPOT signal, Boehringer light units (BLU); mean over the file's lines of this peptide [2]: 9910 | normalised SPOT signal, Boehringer light units (BLU); mean over the file's lines of this peptide [3]: 35.2 | normalised SPOT signal, Boehringer light units (BLU); mean over the file's lines of this peptide [4]: 244 | normalised SPOT signal, Boehringer light units (BLU); mean over the file's lines of this peptide [5]: 151
B21: YLL015W 63-76 (peptide)
chain: KNFPTLPSKINSRH

normalised SPOT signal, Boehringer light units (BLU); mean over the file's lines of this peptide [1]: 32.6 | normalised SPOT signal, Boehringer light units (BLU); mean over the file's lines of this peptide [2]: 808 | normalised SPOT signal, Boehringer light units (BLU); mean over the file's lines of this peptide [3]: 9.1 | normalised SPOT signal, Boehringer light units (BLU); mean over the file's lines of this peptide [4]: 136 | normalised SPOT signal, Boehringer light units (BLU); mean over the file's lines of this peptide [5]: 85.9
B22: YER164W 1280-1293 (peptide)
chain: KKLPTGPSKKRQRK
